Article PMC8659110, “Preliminary Study of New Gallium-68 Radiolabeled Peptide Targeting NRP-1 to Detect Brain Metastases by Positron Emission Tomography” (Molecules, 2021)
Primed or numbered codes have the meaning given here. Where no end group is shown, it is not given here. Cy5 = Cy5 fluorophore (fluorescent dye); NODAGA′ = chelator

T1: recombinant rat NRP-1 protein (rat, UniProt Q9QWJ9 22-855)
T1 construct: neuropilin-1 (NRP-1), rat, recombinant; printed MW 119 kDa; also called neuropilin-1; source: bought: Bio-techne
T1 sequence (looked up): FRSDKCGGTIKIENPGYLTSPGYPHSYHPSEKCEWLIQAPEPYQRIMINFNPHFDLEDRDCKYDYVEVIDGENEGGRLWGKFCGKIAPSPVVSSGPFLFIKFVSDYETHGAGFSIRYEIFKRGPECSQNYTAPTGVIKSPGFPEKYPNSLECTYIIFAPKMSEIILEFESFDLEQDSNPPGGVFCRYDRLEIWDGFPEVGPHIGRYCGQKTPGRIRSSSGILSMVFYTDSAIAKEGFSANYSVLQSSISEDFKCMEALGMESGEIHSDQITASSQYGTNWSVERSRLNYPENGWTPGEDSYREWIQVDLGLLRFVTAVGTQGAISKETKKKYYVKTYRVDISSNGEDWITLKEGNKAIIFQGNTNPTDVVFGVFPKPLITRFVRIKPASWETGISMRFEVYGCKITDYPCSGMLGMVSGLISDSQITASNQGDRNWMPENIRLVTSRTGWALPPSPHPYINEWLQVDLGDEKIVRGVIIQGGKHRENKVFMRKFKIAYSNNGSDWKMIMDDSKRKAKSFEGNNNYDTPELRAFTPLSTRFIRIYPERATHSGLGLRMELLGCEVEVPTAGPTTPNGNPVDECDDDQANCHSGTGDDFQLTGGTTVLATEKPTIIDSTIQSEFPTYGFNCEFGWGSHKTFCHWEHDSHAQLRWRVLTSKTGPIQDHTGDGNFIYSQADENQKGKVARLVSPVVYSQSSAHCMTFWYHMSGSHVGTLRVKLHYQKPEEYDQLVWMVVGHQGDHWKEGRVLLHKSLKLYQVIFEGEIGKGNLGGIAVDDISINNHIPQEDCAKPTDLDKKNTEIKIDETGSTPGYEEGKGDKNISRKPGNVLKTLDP

T2: NRP-1 recombinant chimeric protein ( (recombinant human/rat NRP-1 …, UniProt O14786 22-856))
T2 construct: 'Chimeric' probably means the supplier's Fc chimera; also called recombinant NRP-1 protein; the receptor; source: bought: Bio-techne
T2 sequence (looked up): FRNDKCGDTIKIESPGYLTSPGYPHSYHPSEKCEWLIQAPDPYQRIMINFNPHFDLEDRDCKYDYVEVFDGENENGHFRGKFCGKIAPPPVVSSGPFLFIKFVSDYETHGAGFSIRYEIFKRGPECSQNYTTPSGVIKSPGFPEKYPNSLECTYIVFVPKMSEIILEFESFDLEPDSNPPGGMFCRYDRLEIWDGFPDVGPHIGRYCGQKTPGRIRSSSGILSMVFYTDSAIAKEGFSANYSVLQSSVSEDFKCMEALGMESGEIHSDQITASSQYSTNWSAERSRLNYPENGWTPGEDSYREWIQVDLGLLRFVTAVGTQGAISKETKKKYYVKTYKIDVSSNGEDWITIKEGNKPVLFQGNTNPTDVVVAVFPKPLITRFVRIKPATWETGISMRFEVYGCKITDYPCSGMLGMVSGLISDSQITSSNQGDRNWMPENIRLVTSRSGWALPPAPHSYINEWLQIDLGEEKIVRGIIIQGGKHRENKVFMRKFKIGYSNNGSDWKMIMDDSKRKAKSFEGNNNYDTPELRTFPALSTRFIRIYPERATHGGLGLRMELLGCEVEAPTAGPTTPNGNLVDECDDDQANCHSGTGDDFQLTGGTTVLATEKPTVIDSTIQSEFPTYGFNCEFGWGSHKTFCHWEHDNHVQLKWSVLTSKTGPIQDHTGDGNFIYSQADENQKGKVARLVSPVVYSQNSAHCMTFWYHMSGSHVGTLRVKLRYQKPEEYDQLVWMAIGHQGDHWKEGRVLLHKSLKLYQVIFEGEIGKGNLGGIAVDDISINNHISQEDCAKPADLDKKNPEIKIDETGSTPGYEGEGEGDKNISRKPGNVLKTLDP


Key:
[1] = biological target: T1, recombinant rat NRP-1 protein; test: SPR; Biacore T200, 25 °C; rat NRP-1 covalently immobilised on CM5 chip (10,000 RU), IgG1 reference surface (4000 RU); PBS with 0.05% P20, pH 7.4; compounds 0.60-10 µM (scrambled peptides 10 and 30 µM, VEGF 12.5-400 nM) at 30 µL/min for 300 s; equilibrium response fitted to a 1:1 model; mean of two experiments; conditions: both partners purified
[2] = biological target: T2, NRP-1 recombinant chimeric protein; test: ELISA; competitive binding assay: NRP-1 recombinant chimeric protein coated on Maxisorp microplates; biotinylated VEGF-165 with heparin, with or without increasing concentrations of compounds; 2 h at room temperature; bound b-VEGF-165 detected with streptavidin-HRP, OD 450 nm; IC50 by one-site fit log-IC50; conditions: both partners purified

Binder	Kd [1]	IC50 [2]
KDKPPR (also called KDKPPR free peptide; KDKPPR alone; source: synthetic peptide (Fmoc/tBu solid phase on Fmoc-Arg(Pbf)-Wang resin, precipitated in cold diethyl ether)) [KDKPPR peptide]	7 µM	
K(Cy5)DKPPR (KDKPPR with Cy5 on the side chain of the first lysine; source: synthetic peptide (solid phase with Fmoc-Lys(Cy5)-OH, purified by preparative HPLC)) [K(Cy5)DKPPR]	5 µM	
H-KRPKPD-OH [KRPKPD scramble peptide]		300 µM
{NODAGA′}-K(Cy5)DKPPR (also: NODAGA complexed with natGa, KDKPPR with ^natGa-NODAGA on the N-terminal amine and Cy5 on the side chain of the first lysine; source: synthetic peptide (Fmoc/tBu/Dde solid phase; complexed with ^natGa(NO3)3, purified by preparative HPLC)) [^natGa-NODAGA-K(Cy5)DKPPR]	4 µM	
{NODAGA′}-K(Cy5)RPKPD (also: NODAGA complexed with natGa, scramble peptide KRPKPD with ^natGa-NODAGA on the N-terminal amine and Cy5 on the side chain of the first lysine; also called ^natGa-NODAGA-K(Cy5)scramble; source: synthetic peptide (Fmoc/tBu/Dde solid phase; complexed with ^natGa, purified by preparative HPLC)) [^natGa-NODAGA-K(Cy5)RPKPD]		177 µM
